{"source": "paper doi:10.1101/2023.04.20.537738", "about": "(bioRxiv, 2023)", "binders": {"B1": {"name": "STI-9167 Fab (therapeutically-modified version of FG-10A3) (Fab, V domains shown)", "VH": "QVQLVESGGGVVQPGRSLRLSCAASGFTFSSYGMNWVRQAPGKGLEWVAIIWYYGNNKYYVDSVKGRFTISRDNSKNTLYLQMNSLRAEDTAVYYCARKDYSKTYYGYYFDYWGQGTLVTVSS", "VL": "DIQMTQSPSSLSASVGDRVTITCRASQSIHSFLNWYQQKPGKPPNLLIYAASSLQSGLPSRFSGSGSGTDFTLTISSLQPEDFATYYCQQSYITPPTFGQGTKVEIK"}}, "biological_target": "SARS-CoV-2 HexaPro Spike (SARS-CoV-2, WA-1 / Wuhan-Hu-1 …, UniProt P0DTC2, stabilised, N-linked glycans (built in the model))", "assay": "cryo-EM structure"}
{"binder": "B1", "values": [{"measurement": "binding result", "result": "binds"}]}
